Source: patent publication US12460006B2, “Antibodies against integrin alpha 11 beta 1” (Momenta Pharmaceuticals, Inc., priority 2019, dated 2025)

T1: I domain of α11β1 (Homo sapiens, UniProt Q9UKX5)
T1 construct: An in-house generated I domain of α11β1 was used; made in house
T1 sequence (Q9UKX5 164-345 limits assumed): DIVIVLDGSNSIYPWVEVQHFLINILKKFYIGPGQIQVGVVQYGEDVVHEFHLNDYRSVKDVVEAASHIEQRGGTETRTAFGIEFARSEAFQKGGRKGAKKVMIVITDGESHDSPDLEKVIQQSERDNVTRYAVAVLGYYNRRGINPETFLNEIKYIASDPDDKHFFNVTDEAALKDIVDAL

B1: 5A7: rabbit anti-α11β1 mAb; heavy chain SEQ ID NO: 193, light chain SEQ ID NO: 194 (antibody)
heavy: METGLRWLLLVAVLKGVQCQSLEESGGGLVQPEGSLTLACTASGFSFSSYYYICWVRQAPGTGLEWIGCINTGSDDTHYASWLKGRFTFSKASSTTLTLQMTSLTAADTATYFCARSSGSSDDAYDLWGPGTLVTVSSGQPKAPSVFPLAPCCGDTPSSTVTLGCLVKGYLPEPVTVTWNSGTLTNGVRTFPSVRQSSGLYSLSSVVSVTSSSQPVTCNVAHPATNTKVDKTVAPSTCSKPMCPPPELPGGPSVFIFPPKPKDTLMISRTPEVTCVVVDVSQDDPEVQFTWYINNEQVRTARPPLREQQFNSTIRVVSTLPIAHQDWLRGKEFKCKVHNKALPAPIEKTISKARGQPLEPKVYTMGPPREELSSRSVSLTCMINGFYPSDISVEWEKNGKAEDNYKTTPTVLDSDGSYFLYSKLSVPTSEWQRGDVFTCSVMHEALHNHYTQKSISRSPGK
light: MDTRAPTQLLGLLLLWLPGARCDVVMTQTPASVSEPVGGAVTIKCQASQSIGSNLAWYQHKPGQPPKLLIYFASSLASGVSSRFKGGRSGTQFTLTISDLECADAATYYCHCTYYPLSYVTFGGGTEVVVKGDPVAPTVLIFPPAADQVATGTVTIVCVANKYFPDVTVTWEVDGTTQTTGIENSKTPQNSADCTYNLSSTLTLTSTQYNSHKEYTCKVTQGTTSVVQSFNRGDC
B2: 10-L15: mouse anti-α11β1 mAb; VH SEQ ID NO: 119, VL SEQ ID NO: 120 (antibody, V domains shown)
VH: QVQLQQSGPELVRPGASVKMSCKASGYTFTSYWMHWVKQRPGQGLEWIGMIDPSNSETWLNQKFKDKATLNVDKSSNTAYMQLSSLTSEDSAVYYCARYDGYYDYWGQGTTLTVSS
VL: NIVLTQSPASLAVSLGQRATISCRASESVDSYGNSFMHWYQQKPGQPPKLLIYLASNVESGVPARFSGSGSRTDFTLTIDPVEADDAATYYCQQNNEDPWTFGGGTKLEIK
B3: 3B1: rabbit anti-α11β1 mAb; heavy chain SEQ ID NO: 201, light chain SEQ ID NO: 202 (antibody)
heavy: METGLRWLLLVAVLKGVQCQEQLEESGGGLVKPEGSLTLTCKASGFDLSSGYDMCWVRQAPGKGLEWIACIYADYSGSTYYASWVNGRFTISSSTSLNTVDLKMTSLTAADTATYFCARGATGNGGYGYYFNLWGPGTLVTVSSGQPKAPSVFPLAPCCGDTPSSTVTLGCLVKGYLPEPVTVTWNSGTLTNGVRTFPSVRQSSGLYSLSSVVSVTSSSQPVTCNVAHPATNTKVDKTVAPSTCSKPMCPPPELPGGPSVFIFPPKPKDTLMISRTPEVTCVVVDVSQDDPEVQFTWYINNEQVRTARPPLREQQFNSTIRVVSTLPIAHQDWLRGKEFKCKVHNKALPAPIEKTISKARGQPLEPKVYTMGPPREELSSRSVSLTCMINGFYPSDISVEWEKNGKAEDNYKTTPTVLDSDGSYFLYSKLSVPTSEWQRGDVFTCSVMHEALHNHYTQKSISRSPGK
light: MDTRAPTQLLGLLLLWLPGARCADIVMTQTPASVSEPVGGTVTIKCQASQNINSGLAWYQQKPGQPPKLLIYKASTLASGVSSRFKGSGSGTEFTLTISDLECADAATYYCQTYYYSSSSSDNAFGGGTEVVVKGDPVAPTVLIFPPAADQVATGTVTIVCVANKYFPDVTVTWEVDGTTQTTGIENSKTPQNSADCTYNLSSTLTLTSTQYNSHKEYTCKVTQGTTSVVQSFNRGDC

What follows are molecules tested on human pulmonary fibroblasts (HPFs) (assay: FACS antibody binding to human pulmonary fibroblasts). Conditions: binding Yes/No.

Molecule | HPF FACS
B1 | No
B2 | No
B3 | No

These molecules were tested on myofibroblasts (MF) (assay: FACS antibody binding to myofibroblasts). Conditions: binding Yes/No.
Set-up: species or system human
Method in brief: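 Human pulmonary fibroblasts, serum-starved 24 h then TGFβ-1-treated 72 h to give myofibroblasts, were blocked with heat-inactivated FBS and stained with anti-α11 antibodies, then PE secondary, 30 min each at 4 °C, before 1% PFA fixation. Binding read by flow cytometry as PE geometric MFI of single cells.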

Molecule | MF FACS
B1 | Yes
B2 | No
B3 | Yes

What follows are molecules tested against mouse α11β1 (Mus musculus, UniProt P61622) (assay: ELISA binding to recombinant mouse α11β1). Conditions: binding Yes/No.
mouse α11β1, sequence (P61622 23-1141 limits assumed): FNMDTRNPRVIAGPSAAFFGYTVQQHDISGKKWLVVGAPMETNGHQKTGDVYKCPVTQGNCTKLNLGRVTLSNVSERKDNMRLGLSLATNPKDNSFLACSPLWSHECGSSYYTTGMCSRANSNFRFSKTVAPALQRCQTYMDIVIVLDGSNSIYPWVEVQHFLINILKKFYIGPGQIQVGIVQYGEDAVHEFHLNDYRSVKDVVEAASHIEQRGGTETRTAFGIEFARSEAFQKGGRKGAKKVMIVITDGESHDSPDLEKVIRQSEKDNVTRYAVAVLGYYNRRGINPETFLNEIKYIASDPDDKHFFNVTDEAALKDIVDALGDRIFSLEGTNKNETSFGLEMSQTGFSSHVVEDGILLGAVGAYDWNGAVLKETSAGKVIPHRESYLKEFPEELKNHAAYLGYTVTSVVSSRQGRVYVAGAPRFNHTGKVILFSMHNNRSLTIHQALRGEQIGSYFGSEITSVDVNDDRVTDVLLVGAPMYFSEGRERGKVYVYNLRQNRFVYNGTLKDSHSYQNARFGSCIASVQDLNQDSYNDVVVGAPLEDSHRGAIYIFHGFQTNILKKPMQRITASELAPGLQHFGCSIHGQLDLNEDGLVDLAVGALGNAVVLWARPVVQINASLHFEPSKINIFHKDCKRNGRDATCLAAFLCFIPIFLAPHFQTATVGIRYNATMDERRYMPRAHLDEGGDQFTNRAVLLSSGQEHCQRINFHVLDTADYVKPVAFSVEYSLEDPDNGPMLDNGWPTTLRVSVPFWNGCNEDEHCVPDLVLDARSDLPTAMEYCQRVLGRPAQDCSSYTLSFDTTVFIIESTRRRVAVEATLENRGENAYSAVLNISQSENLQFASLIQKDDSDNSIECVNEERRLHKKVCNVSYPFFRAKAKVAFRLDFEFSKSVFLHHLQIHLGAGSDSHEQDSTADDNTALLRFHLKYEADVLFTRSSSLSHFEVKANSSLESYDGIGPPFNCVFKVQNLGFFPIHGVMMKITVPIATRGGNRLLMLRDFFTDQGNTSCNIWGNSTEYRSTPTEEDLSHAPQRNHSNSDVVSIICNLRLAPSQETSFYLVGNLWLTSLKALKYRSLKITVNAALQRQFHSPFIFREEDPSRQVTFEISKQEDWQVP
mouse α11β1, sequence (P09055 21-728 partner limits assumed): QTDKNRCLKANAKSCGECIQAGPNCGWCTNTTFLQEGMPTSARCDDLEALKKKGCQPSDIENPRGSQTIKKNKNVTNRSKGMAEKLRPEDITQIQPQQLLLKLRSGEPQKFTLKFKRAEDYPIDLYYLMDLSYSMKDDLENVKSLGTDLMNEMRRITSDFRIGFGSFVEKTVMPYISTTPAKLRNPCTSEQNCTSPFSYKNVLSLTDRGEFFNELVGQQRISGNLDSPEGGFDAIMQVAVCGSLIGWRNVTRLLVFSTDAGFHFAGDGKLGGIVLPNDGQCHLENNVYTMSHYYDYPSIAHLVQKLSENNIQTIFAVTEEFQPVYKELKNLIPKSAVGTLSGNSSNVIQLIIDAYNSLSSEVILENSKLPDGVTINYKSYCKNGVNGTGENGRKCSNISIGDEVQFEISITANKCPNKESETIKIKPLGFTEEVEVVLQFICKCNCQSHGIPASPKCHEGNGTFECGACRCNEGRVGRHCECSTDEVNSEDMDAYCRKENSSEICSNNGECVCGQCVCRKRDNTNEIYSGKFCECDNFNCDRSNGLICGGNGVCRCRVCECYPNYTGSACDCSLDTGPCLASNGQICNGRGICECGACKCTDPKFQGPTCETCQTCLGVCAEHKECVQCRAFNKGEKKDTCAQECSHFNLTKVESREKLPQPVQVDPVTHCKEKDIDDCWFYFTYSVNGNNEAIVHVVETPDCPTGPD
Method in brief: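 Recombinant human or mouse α11β1 coated at 0.25 μg/mL overnight at 4° C, blocked with 2% BSA, then antibody titrations bound 1 h at room temperature. Detection used biotinylated anti-IgG followed by streptavidin-HRP and TMB, with absorbance read at 450 nm.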

Molecule | Murine α11β1 ELISA
B1 | No
B2 | Yes
B3 | No

These molecules were tested against T1, I domain of α11β1 (assay: ELISA binding to in-house generated I domain of α11β1). Conditions: Yes/No.
Method in brief: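 Plate-coated antigen (0.25 μg/mL, overnight 4° C) probed with antibody dilution series 1 h at room temperature, then biotinylated anti-IgG and streptavidin-HRP, 1 h each. TMB substrate 5 min, stopped, absorbance at 450 nm; in-house I domain of α11β1 used as target.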

Molecule | I Domain binding
B1 | No
B2 | Yes
B3 | No

These molecules were tested on α1β1, α2β1 and/or α10β1 (assay: Counter-screen for cross-reactivity to other collagen receptors). Conditions: cross-reactivity to α1β1, α2β1, α10β1.
Type: binding, human
Method in brief: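 Rat- and mouse-derived anti-α11β1 hybridoma supernatants or clones, first identified by ELISA against human and mouse α11β1, were counter-screened by ELISA against human α1β1, α2β1 and α10β1 to assess cross-reactivity to related collagen receptors.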

Molecule | Off Target
B1 | No
B2 | No
B3 | No
